Positions count from the first letter of the chain named.

The results in this text go back to patent US20160251436A1 (PD 1 ACQUISITION GROUP, published 2016).

Assay [1] addresses T1, PD-1-HIS (human, UniProt Q15116).
T1 construct: soluble extracellular domain; May be the same protein as m2; also called PD-1-HIS(tag); PD-1-His Tag (Sino Biological #10377-H08H-50)
Description: ELISA, supernatant of transfected HEK293 cells on PD-1-HIS(tag), OD 450 nm, average of two experiments.

Assay [2] addresses T2, human Programmed Death-1 (PD-1) expressed on the cell surface (human, UniProt Q15116 25-288).
T2 construct: whole, on cells; also called CD279; Human PD-1 Expressed on HEK293 Surface
The experiment in a line: cell binding, HEK293 cells expressing human PD-1, fluorescent anti-mouse secondary. As for the experimental part: Recombinant antibodies from cultured supernatants were also used in cell-based binding studies. HEK293 cells were transfected (Qiagen, SuperFect) with expression plasmids encoding the Ig heavy and light chains of anti-PD-1 antibodies. After 3-5 days, recombinant antibodies in the supernatants of transfected cells were harvested. Stable HEK293 cells expressing human PD-1 or primary cells were used for the cell-based binding confirmation studies. Antibodies from cultured supernatants were assessed for binding to cell surface PD-1 using fluorescently labeled anti-mouse IgG (polyclonal) antibody (Jackson Immunoresearch).
In both studies, commercially available mouse anti-PD-1 antibody and isotype control mouse IgG1 […] were used as controls. […] Strong binding is denoted as “+++”, medium binding is denoted as “++”, and weak binding is denoted as “+”.

The target of assay [3] is T2, human Programmed Death-1 (PD-1) …. Description: cell-based or functional assay.
Assay [4] has the same target. The experiment in a line: cell-based or functional assay. The source holds these as a separate data set.
Assay [5] deals with T3, soluble extracellular domain of human PD-1 (human, UniProt Q15116 25-170).
T3 construct: extracellular domain
Description: BLI (ForteBio Octet Red), antibody on the biosensor, soluble PD-1 ECD as analyte. As for the experimental part: Biophysical characteristics of certain anti-PD-1 antibodies were analyzed by biolayer interferometry (BLI), using the ForteBio Octet Red system (Pall Corporation, Menlo Park, Calif.). The antibodies were immobilized on BLI biosensors and then incubated with the soluble extracellular domain of human PD-1. Using standard biophysics methods, apparent on-rates and off-rates were then inferred for PD-1 with anti-PD-1 antibodies.

The target in assay [6] is T4, recombinant soluble extracellular domain (ECD) of CD28 (R&D Systems) (UniProt P10747 19-152, limits assumed).
T4 construct: extracellular domain
The experiment in a line: ELISA, CD28 ECD coated on the plate, OD 450 nm; anti-CD28 as positive control. As for the experimental part:
(§1) To assess selectivity of the anti-PD-1 antibodies, ELISA was used to generate dose response curves for binding of the anti-PD-1 antibodies to several immunomodulatory cell surface proteins. Recombinant soluble extracellular domains (ECDs) of ICOS (inducible T-cell costimulator), PD-1, CD28 or CTLA4 (R&D Systems, Minneapolis, Minn.) were coated onto ELISA assay plates. Binding of each anti-PD-1 antibody and each control antibody to each target protein was then assessed over a range of antibody concentrations (FIGS. 9A-9D).

For assay [7], the target named is T5, recombinant soluble extracellular domain (ECD) of PD-1 (R&D Systems) (UniProt Q15116 25-170).
T5 construct: extracellular domain; also called PD-1 ECD
Description: ELISA, PD-1 ECD coated on the plate, antibody titrated from about 0.003 to about 13 nM, OD 450 nm. As for the experimental part: as §1

Assay [8] deals with T6, recombinant soluble extracellular domain (ECD) of ICOS (inducible T-cell costimulator) (R&D Systems) (UniProt Q9Y6W8 21-140, limits assumed).
T6 construct: extracellular domain
T6 sequence (looked up): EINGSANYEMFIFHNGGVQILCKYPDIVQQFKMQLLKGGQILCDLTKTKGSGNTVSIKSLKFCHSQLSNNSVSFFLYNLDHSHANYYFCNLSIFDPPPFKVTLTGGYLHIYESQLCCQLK
Description: ELISA, ICOS ECD coated on the plate, OD 450 nm; anti-ICOS as positive control. As for the experimental part:
as §1

The target in assay [9] is T2, human Programmed Death-1 (PD-1) …. The experiment in a line: cell-based or functional assay. The source holds these as a separate data set.
Assay [10] addresses T7, recombinant soluble extracellular domain (ECD) of CTLA4 (R&D Systems) (UniProt P16410 36-161, limits assumed).
T7 construct: extracellular domain
Description: ELISA, CTLA4 ECD coated on the plate, OD 450 nm; anti-CTLA4 as positive control. As for the experimental part: as §1

T1 sequence (Q15116 25-167 limits assumed): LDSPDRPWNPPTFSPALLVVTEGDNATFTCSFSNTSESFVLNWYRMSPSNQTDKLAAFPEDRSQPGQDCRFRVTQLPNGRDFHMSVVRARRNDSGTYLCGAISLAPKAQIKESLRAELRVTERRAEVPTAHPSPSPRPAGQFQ
T3 sequence (Q15116 25-170): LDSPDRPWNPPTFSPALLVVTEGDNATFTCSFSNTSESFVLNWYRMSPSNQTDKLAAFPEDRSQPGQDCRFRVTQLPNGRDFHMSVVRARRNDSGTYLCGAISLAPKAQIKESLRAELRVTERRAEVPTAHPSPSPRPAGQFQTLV
T2 sequence (Q15116 25-288): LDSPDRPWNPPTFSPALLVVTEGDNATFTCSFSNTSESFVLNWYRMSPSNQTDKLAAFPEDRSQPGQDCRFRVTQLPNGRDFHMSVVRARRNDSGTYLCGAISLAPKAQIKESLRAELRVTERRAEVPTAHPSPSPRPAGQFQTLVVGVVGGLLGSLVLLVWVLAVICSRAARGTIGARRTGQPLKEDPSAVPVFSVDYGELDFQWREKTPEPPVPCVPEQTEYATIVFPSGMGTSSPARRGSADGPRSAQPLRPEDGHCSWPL
T5 sequence (Q15116 25-170): as the sequence (Q15116 25-170) above
T7 sequence (P16410 36-161 limits assumed): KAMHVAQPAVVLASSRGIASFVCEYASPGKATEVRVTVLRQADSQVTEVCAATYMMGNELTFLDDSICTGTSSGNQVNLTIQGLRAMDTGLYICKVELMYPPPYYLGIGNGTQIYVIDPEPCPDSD

B1: 100246_F7VH3_100247_F7VK2 (antibody, V domains shown)
VH: EVQLQESGPELVRPGASVKMSCKASGYTFTSYWMHWVKQRPGQGLEWIGMIDPYSSETSLNQKFKDKATLNVDKISNTAYMQLSSLTSEDSAVYFCARSRGNYAYDMDYWGQGTSVTVSS
VL: DIVLTQSTAIMSASPGEKVTLTCSASSGVNSNYLYWYQQKPGSSPKLWIYSTSNLASGVPARFSGSGSGTSYSLTISSVEAEDAASYFCHQWSSYPPTFGSGTKLEIK
notes: Mouse variable regions; cloned into pFUSE-CHIg-mG1 (murine IgG1 Fc), expressed in HEK293
For B1, the binding result in assay [1] and in assay [2] was “binds” in each case.

B2: 100258_F6VH4_100259_F6VK1 (antibody, V domains shown)
VH: B1 VH with D52E, Y54S, I75S, F95Y, D106E
VL: B1 VL with L4M, S7T, I10T, G28S, L47V, V79M, I107L
notes: as for B1
Take B2: the binding result in assay [1] and in assay [2] was “binds” each time.

B3: 388D4-2 (100388_D4_HC3 + 100389_D4_LC3) (antibody, V domains shown)
VH: EVQLVQSGAEVKKPGASVKVSCKASGYTFTDYEMHWVRQAPGQRLEWMGVIDPGTGGTAYNQKFQGRVTITADKSASTAYMELSSLRSEDTAVYYCTSEKFGSNYYFDYWGQGTLVTVSS
VL: DIVMTQTPLSSPVTLGQPASISCRSSQTIVHSDGNTYLEWYQQRPGQPPRLLIYKVSNRFSGVPDRFSGSGAGTDFTLKISRVEAEDVGVYYCFQGSHVPLTFGQGTKLEIK
Regarding B3, in assay [3], the “Fold Induction IFN-γ (relative to anti-CD3 + anti-CD28 only; antibody at 5 ug/mL)” value worked out at 2.06 fold and the “Fold Induction IFN-γ (relative to anti-CD3 + anti-CD28 only; antibody at 10 ug/mL)” value amounted to 1.82 fold. Moreover, the “Fold Induction IFN-γ (relative to isotype control; NSCLC biopsy cells, 20 µg/mL)” value in assay [4] was determined as 7.58 fold.

B4: 388D4-3 (100388_D4_HC1 + 100389_D4_LC3) (antibody, V domains shown)
VH: B3 VH with R44G, V50I, I70M, A76T, A79V
VL: B3 VL
Turning to B4, the “Fold Induction IFN-γ (relative to isotype control; NSCLC biopsy cells, 20 µg/mL)” value in assay [4] is 7.2 fold.

B5: 244C8-1 (100244_C8_HC1 + 100245_C8_LC1) (antibody, V domains shown)
VH: QVQLVQSGAEVKKPGASVKVSCKASGYTFTSYWMHWVRQAPGQGLEWMGMIDPSNSETSLNQKFQGRVTMTVDKSTNTVYMELSSLRSEDTAVYYCARSRGNYAYEMDYWGQGTLVTVSS
VL: EIVLTQSPATLSLSPGERATLSCRASSSVSSNYLYWYQQKPGQAPRLLIYSTSNRATGIPARFSGSGSGTDYTLTISSLEPEDFAVYYCHQWSSYPPTFGQGTKLEIK
With B5, the “Fold Induction IFN-γ (relative to isotype control; NSCLC biopsy cells, 20 µg/mL)” value in assay [4] stood at 8.04 fold.

B6: 244C8-3 (100244_C8_HC2 + 100245_C8_LC1) (antibody, V domains shown)
VH: B5 VH with Q1E, M70L, T71N, V79A
VL: B5 VL
In the case of B6, in [4], the “Fold Induction IFN-γ (relative to isotype control; NSCLC biopsy cells, 20 µg/mL)” value worked out at 7.79 fold.

B7: 100413_D2VH9_100414_D2VK6 (antibody, V domains shown)
VH: EVQLQESGPDLVKPSQSLSLTCTVTGYSITSGYSWHWIRQFPGNKLEWMGFIHYSGDTNYNPSLKSRFSITRDTSKNQFFLHLNSVTPEDTATYYCASPSRLLFDYWGHGTTLTVSS
VL: DIVMTQSPSSLTVTAGEKVTMSCKSSQSLLNSGTQKNYLTWYQQKPGQPPKLLIYWASTRESGVPDRFTGSGSGTDFTLTISSVQAEDLAVYYCQNDYSYPLTFGAGTKLEIK
notes: as for B1
On to B7, for which, in [5], the Kd worked out at 8.2 nM, the dissociation rate constant (koff) turned out to be 0.00226 s⁻¹ and the kon was 275000 M⁻¹ s⁻¹.

B8: 100394_D5VH9_100395_D5VK7 (antibody, V domains shown)
VH: EVQLQESGPELVKPGASVKIPCRASGYIFTDYNMDWVKQSHGKSLEWIGDIDPNNGGTIYNQKFKDKTTLTVDKSSRTAYMELRSLTSEDTAVYYCARWRSSMDYWGQGTSVTVSS
VL: DIVMTQTPSSMSASLGDRVTISCSASQGISNYLNWYQQKPDGTVKLLIYYTSSLHSGVPSRFSGSGSGTDYSLTISNLEPEDIATYYCQQYSYLPWTFGGGTKLEIK
notes: as for B1
On to B8, for which the binding result in assay [1] and in assay [2] was “binds” throughout.

B9: 100394_G1VH1_100395_G1VK4 (antibody, V domains shown)
VH: B8 VH with R23K, I28T, S40N, G57D, D66G, T68A
VL: B8 VL with T7S, M11L, K39R, Y93N
notes: as for B1
With B9, the binding result in [1] and in [2] was “binds” in each case.

B10: 100388_D4VH3_100389_D4VK5 (antibody, V domains shown)
VH: EVQLQESGAELVRPGASVTLSCKASGYTFTDYEMHWVKQTPVHGLEWIGVIDPGTGGTAYNQKFKVKALLTADKSSNTAYMELRSLTSEDSAVYYCTSEKFGSNYYFDYWGQGTTLTVSS
VL: DIVITQTPLSLPVSLGDQASISCRSSQTIVHSDGNTYLEWYLQKPGQSPKLLIYKVSNRFSGVPDRFSGSGSGTDFTLKISRVEAEDLGVYYCFQGSHVPLTFGAGTKLEIK
notes: as for B1
For B10, in assay [6], the binding result is recorded as “no binding (tested: about 13 nM)”. In addition, the “EC50 (read off the curve)” value in assay [7] is around 0.05 nM. In addition, the binding result in assay [8] is given as “no binding (tested: about 13 nM)”. In [5], this molecule returned a dissociation constant Kd of 2.69 nM, a koff of 0.000999 s⁻¹ and a kon of 371000 M⁻¹ s⁻¹. In [9], the “CD4 IFNγ % positive” value is 21.2 % positive, the “CD8 IFNγ % positive” value amounted to 31.2 % positive and the “CD8 TNFα % positive” value stood at 8.56 % positive. Moreover, the binding result in assay [10] is recorded as “no binding (tested: about 13 nM)”.

B11: 100413_E1VH9_100414_E1VK5 (antibody, V domains shown)
VH: EVQLQESGPSLVQPSQSLSITCTVSGFSLTSYGVHWVRQSPGKGLEWLGVIWRGGNTDYNAAFMSRLSITKDNSKSQVFFKMNSLQADDTAIYYCAASMIGGYWGQGTTLTVSS
VL: B10 VL with I4L, T28S, D33N, D75N, I111L
notes: as for B1
For B11, the binding result in assay [6] is given as “no binding (tested: about 13 nM)”. Further, in assay [7], the “EC50 (read off the curve)” value is around 0.06 nM. Besides, the binding result in [8] is listed as “no binding (tested: about 13 nM)”. In assay [5], the Kd turned out to be 58.9 nM, the koff worked out at 0.0299 s⁻¹ and the on-rate constant (kon) is 507000 M⁻¹ s⁻¹. In addition, in assay [9], the “CD4 IFNγ % positive” value came to 20.2 % positive, the “CD8 IFNγ % positive” value worked out at 27 % positive and the “CD8 TNFα % positive” value is 11.1 % positive. Moreover, the binding result in assay [10] is “no binding (tested: about 13 nM)”.

B12: 100392_A6VH8_100393_A6VK5 (antibody, V domains shown)
VH: B10 VH with M34I, V50A, G54E, V66G, L69I, N77S, N104S, L116F
VL: B10 VL with I4M, T7S, P8T, A19V, T28S, K50N, I111L
notes: as for B1
B12: the binding result in [1] and in [2] was “binds” each time.

B13: 100258_C1VH4_100259_C1VK1 (antibody, V domains shown)
VH: EVQLQESGAELVMPGASVKMSCKASGYTFTDYWMHWVKQRPGQGLEWIGAIDTSDSYTSYHQNFKGKATLTEDESSSTAYMQLSSLTSEDSAIYYCARRDYGGFGYWGQGTTLTVSS
VL: DIVITQSPLSLPVGLGDQASISCRSSQSLVHSNGNTYLHWYLQKPGQSPKLLIYKVSNRFSGVPDRFSGSGSGTDFTLKISRVEAEDLGVYFCSQSTHVPYTFGGGTKLEIK
notes: as for B1
On to B13, for which the binding result in assay [1] and in assay [2] was “binds” throughout.
